Positions count from the first letter of the chain named.
B1: SEQ ID NO: 90: artificial polypeptide of formula (VI) X-Y (protein)
chain: STKKQPVDLGLLETDSEFTEFPATSWAGLSESESAHVWTSNWDSSNVTSDFSNQLRATVLLMILVAETPYGAYVLHQKGRMASAFLAA
B2: SEQ ID NO: 93: artificial polypeptide of formula (VI) or (I) X-Y (protein)
chain: SEKKQPVDLGLLEEDDEFEEFPAEDWAGLDEDESAHVWEDNWDDDNVTSDFSNQLRATVLLMILVAETPYGAYVLHQKGRMASAFLAA
B3: SEQ ID NO: 57: artificial polypeptide of formula (I) X-Y; also listed for peripheral neuropathic pain (protein)
chain: SEKKQPVDLGLLEEDDEFEEFPAEDWAGLDEDEDAHVWEDNWDDDNVTSDFSNQLRATVLLMI
B4: SEQ ID NO: 49: artificial polypeptide of formula (III) X-Y (protein)
chain: B1 chain with A66C, A72C, A82C, A87C, A88C
B5: SEQ ID NO: 28: polypeptide of SEQ ID NO: 28 for treating or preventing peripheral neuropathic pain (protein)
chain: B2 chain with S34D, T48E, S49D, A66C, A72C, A82C, A87C, A88C
B6: SEQ ID NO: 75: artificial polypeptide of formula (I) X-Y (protein)
chain: SEKKQPVDLGLLEEDDEFEEFPAEDWAGLDEDEDAHVWEDNWDDDNVEDDFSNQLRATVLLMILVAETPYGAYV

These molecules were tested on SNL pain model in rats (assay: SNL (spinal nerve ligation) pain model in rats, mechanical allodynia test). Conditions: SD rats, i.v. single administration (SEQ ID NO: 29 30 and 60 mg/kg; SEQ ID NO: 90 and 93 60 mg/kg), 1 h after administration.
Type: in vivo, rat
Method: A summary of the method for inducing pain model in rats by means of spinal nerve ligation is provided hereinafter. Briefly, male SD rats were anesthetized with Zoletil R 50+xylazine hydrochloride (20 mg/kg+8 mg/kg, intraperitoneal injection). The surgical areas on the waist regions of the animals were shaved, and the skin was disinfected with iodophor and 70% v/v ethanol for three times. The left spinal nerves L5 and L6 of the animals were isolated, tightly ligated with 6-0 silk suture, and the wounds were sutured.
On the 11th day post operation, the animals were acclimated to the experimental environment, 15 minutes/day, for 3 consecutive days.
Briefly, after SNL modeling, 24 animals were randomly divided into 3 groups (Groups 2, 3 and 4, N=8/group). Group 1 (a Sham group, for which the 10 animals received essentially the same operation procedure as other groups but their left spinal nerves L5 and L6 were neither isolated nor ligated) was used as the control group. The test articles were administrated to the animals according to the protocol shown in Table 5, and mechanical allodynia tests were respectively performed 1h after administration according to the method as recited in Example 1.
Briefly, after SNL modeling, 30 animals were randomly divided into 3 groups (Group 1, N=6/group; Groups 2 and 3, N=12/group). Various polypeptides of the present disclosure were administered to the animals from Groups 2 and 3, and the animals were subjected to mechanical allodynia tests 1 h after administration according to the method as recited in Example 1.

Row | Molecule | analgetic effect (50% PWT)
1 | B1 | certain analgetic effect
2 | B2 | certain analgetic effect

What follows are molecules tested on VZV-induced pain model in rats (assay: VZV-induced pain model in rats, mechanical allodynia (von Frey) test). Conditions: 10 mg polypeptide/kg i.v., single administration, tested 0.5 h after administration.
Type: in vivo, rat
Method: A summary of the method for inducing pain model in rats by means of subcutaneous VZV inoculation is provided hereinafter. Briefly, male Sprague Dawley (SD) rats were deeply anesthetized by intraperitoneal injection of a Zoletil R: 50 (30 mg/kg)/xylazine (6 mg/kg) anesthetic at an injection volume of 6 mL/kg, and then the virus inoculation was performed by subcutaneous injection at the footpad area. The infection dose was 22800 TCID50 per animal, and the infection volume was 150 μL for all rats.
Administration was performed on alternate days. Briefly, the test articles were administered by subcutaneous injection at the footpad area on Day 1 and Day 3, respectively. As for Group 2, the administration of SEQ ID NO: 29 was initiated from the first concentration. Namely, the first concentration (10 μg/mL) was administered on Day 1, and the second concentration (20 μg/mL) was administered on Day 3. Pain was measured once after each administration.
Mechanical allodynia tests (also called “von Frey tests”) for pain measurements were performed on the rats one hour after administration of the test articles on Day 1 and Day 3, respectively. In the behavioral test for rats, mechanical allodynia is expressed as the 50% paw withdrawal threshold (PWT), which is calculated according to the following formula:
[formula] • wherein • Xf=final test fiber value used in the test • k=tabular value for the pattern of positive/negative responses (Chaplan et al. 1994, page 62) • δ=mean difference.
Briefly, the rats were placed individually in plexiglass boxes with a grid at the bottom to ensure that the rats' feet could be tested. The rats were acclimated to the environment for 15 minutes prior to the test. After the acclimation was completed, pain (mechanical allodynia) was tested on the center of the sole of the left hind foot of the rats using test fibers. The test fibers included 8 test strengths: 3.61 (0.4 g), 3.84 (0.6 g), 4.08 (lg), 4.31 (2 g), 4.56 (4 g), 4.74 (6 g), 4.93 (8 g) and 5.18 (15 g). During the test, the test fibers were pressed vertically against the skin and forces were applied to bend the fibers for 6-8 seconds with a 5-second interval between each test. During the test, a pain response was recorded if the animals quickly withdrew their feet. The pain response was also recorded if the animal withdrew their feet as the test fibers left the animal's skin. The pain response was not recorded if the animal moved or ambulated, and the test should be repeated. The test was started with 4.31 (2 g). If the animal had pain response, the next test should be performed with a test fiber with a lower strength: if the animal has no pain response, the next test should be performed with a test fiber with a higher strength. The maximum strength of the tested fibers was 5.18 (15 g). The test results were recorded in a table, wherein the presence of pain response was recorded as “x”, and the absence of pain response was recorded as “0”.
The rats were randomly divided into 2 groups, with 8 rats in the placebo group (Group 1, administered with vehicle (normal saline)) and 8 rats in the treatment group (Group 2, administered with 30 mg SEQ ID NO: 29/kg). Briefly, the test articles were administered to the rats on a single day by intravenous injection.
Mechanical allodynia tests were performed on the rats 0.5 h after administration of the test articles according to the method as recited in Example 1, respectively.
The rats were randomly divided into 3 groups, with 8 rats in the placebo group (Group 1, administered with vehicle (normal saline)) and 16 rats in the treatment groups (Groups 2 and 3, 8 rats/group, administered with various polypeptides). Briefly, vehicle (normal saline) was administered to the rats from Group 1 and various polypeptides were administered to the rats from Group 2 (SEQ ID: 29, SEQ ID: 57 and SEQ ID: 49; 10 mg polypeptide/kg) and 3 (SEQ ID: 75 and SEQ ID: 28: 10 mg polypeptide/kg) on a single day by intravenous injection.

Row | Molecule | analgetic effect (50% PWT)
3 | B3 | apparent analgetic effect
4 | B4 | apparent analgetic effect
5 | B5 | apparent analgetic effect
6 | B6 | apparent analgetic effect
